Experimental data reported in patent publication US20100215651A1 (GLENMARK PHARMACEUTICALS S A, published 2010).
Residue numbers refer to the chain shown, from its start. In names and notes the source's numbering stands.

T1: human CD19 (human, UniProt P15391 20-556)
T1 construct: CD19 as expressed on Raji, NALM-6 and SU-DHL-6 cells; also called CD19 antigen; B-cell surface antigen B4
T1 sequence: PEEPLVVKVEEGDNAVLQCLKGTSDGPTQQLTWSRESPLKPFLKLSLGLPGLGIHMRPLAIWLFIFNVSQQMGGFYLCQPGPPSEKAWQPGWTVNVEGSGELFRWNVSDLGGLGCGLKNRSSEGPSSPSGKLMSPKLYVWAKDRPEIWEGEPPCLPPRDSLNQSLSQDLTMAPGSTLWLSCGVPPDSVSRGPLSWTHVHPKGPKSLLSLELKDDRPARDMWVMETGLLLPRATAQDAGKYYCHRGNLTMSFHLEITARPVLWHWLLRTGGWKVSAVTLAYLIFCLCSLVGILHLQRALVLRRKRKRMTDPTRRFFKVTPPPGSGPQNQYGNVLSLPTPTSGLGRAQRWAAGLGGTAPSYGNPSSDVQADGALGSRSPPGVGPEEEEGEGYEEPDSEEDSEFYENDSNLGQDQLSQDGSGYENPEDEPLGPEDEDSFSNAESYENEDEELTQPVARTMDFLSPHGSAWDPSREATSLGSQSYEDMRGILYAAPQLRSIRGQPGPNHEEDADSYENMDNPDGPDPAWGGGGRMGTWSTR

B1: VH16 R94K VL43 F71H (antibody, human IgG1, V domains shown)
VH: QVQLVQSGGGVVQPGRSLRLSCAASGVSLPDYGVSWVRQAPGKGLEWVAVIWGSETTYYNSALKSRFTISRDNSKNTLYLQMNSLRAEDTAVYYCAKHYYYGGSYAMDYWGQGTLVTVSS
VL: DIVMTQTPSSLSASVGDRVTITCRASQDISKYLNWYQQKPGKAPKLLIYHTSRLHSGVPSRFSGSGSGTDHTLTISSLQPEDFATYYCQQGNTLPYTFGPGTKVDIK
B2: VH16 R94K VL43 F71T (antibody, human IgG1, V domains shown)
VH: B1 VH
VL: B1 VL with H71T
B3: VH16 R94K VL43 F71S (antibody, human IgG1, V domains shown)
VH: B1 VH
VL: B1 VL with H71S
B4: VH16 R94K/Y97F/VL43 V3Q/T7S/Y32F/N92A (antibody, human IgG1, name in Kabat numbering, V domains shown)
VH: B1 VH with Y100F
VL: DIQMTQSPSSLSASVGDRVTITCRASQDISKFLNWYQQKPGKAPKLLIYHTSRLHSGVPSRFSGSGSGTDFTLTISSLQPEDFATYYCQQGATLPYTFGPGTKVDIKR
notes: substitutions in Kabat numbering
B5: VH16 Y32F/R94K/Y97F/VL43 V3Q/T7S/Y32F/N92A (antibody, human IgG1, name in Kabat numbering, V domains shown)
VH: B1 VH with Y32F, Y100F
VL: B4 VL
notes: as for B4
B6: VH16/VL43 (antibody, human IgG1, V domains shown)
VH: B1 VH with K97R
VL: B4 VL with Q3V, S7T, F32Y, A92N
B7: VH16-Y32F-R94K-Y97F/VL43-V3Q-T7S-N92A (antibody, human IgG1, name in Kabat numbering, V domains shown)
VH: B1 VH with Y32F, Y100F
VL: B4 VL with F32Y
notes: as for B4
B8: VH16-R94K/VL43-P44V (antibody, human IgG1, V domains shown)
VH: B1 VH
VL: B4 VL with Q3V, S7T, F32Y, P44V, A92N
notes: Full-length human IgG1/kappa; substitutions in Kabat numbering
B9: VH16-Q6E/VL43-V3Q/T7S (antibody, human IgG1, name in Kabat numbering, V domains shown)
VH: B1 VH with Q6E, K97R
VL: B4 VL with F32Y, A92N
notes: as for B4
B10: VH16/VL43-V3Q/T7S (antibody, human IgG1, V domains shown)
VH: B1 VH with K97R
VL: B4 VL with F32Y, A92N
notes: as for B4
B11: VH16-R94K/VL43-V3Q/T7S (antibody, human IgG1)
heavy: not shown
VL: DIQMTQSPSSLSASVGDRVTITCRASQDISKYLNWYQQKPGKAPKLLIYHTSRLHSGVPSRFSGSGSGTDFTLTISSLQPEDFATYYCQQGNTLPYTFGPGTKVDIKRTVAA
notes: as for B8
B12: VH16 R94K VL43 N92A (antibody, human IgG1)
heavy: not shown
VL: B11 VL with Q3V, S7T, N92A
notes: as for B8
B13: VH16 R94K VL43 T93V (antibody, human IgG1, V domains shown)
VH: B1 VH
VL: B4 VL with Q3V, S7T, F32Y, A92N, T93V
notes: Full-length human IgG1/kappa; substitutions in Kabat numbering; also called VK16 R94K VL43 T93V
B14: VH16 R94K VL43 T93A (antibody, human IgG1, V domains shown)
VH: B1 VH
VL: B4 VL with Q3V, S7T, F32Y, A92N, T93A
notes: as for B8
B15: VH5VL39 (antibody, V domains shown)
VH: EVQLVESGGGLVKPGGSLRLSCAASGVSLPDYGVSWIRQAPGKGLEWVSVIWGSETTYYNSALKSRFTISRDNAKNSLYLQMDSLRVEDTAVYYCAGHYYYGGSYAMDYWGQGTLVTVSS
VL: B4 VL with Q3V, S10T, F32Y, D70E, E81D, A92N, P100Q, D105E
B16: VH20/VL44 (antibody, human IgG1, V domains shown)
VH: B1 VH with V11L, R16G, A23V, A49S, S74A, T77S, K97R
VL: B4 VL with Q3V, L11M, V15I, F32Y, K45N, D70E, A92N, P100Q, V104L, D105E
B17: VH5VL40 (antibody, V domains shown)
VH: B15 VH
VL: B4 VL with Q3V, S7T, F32Y, A43V, K45N, D70E, A92N, P100G, D105E
B18: VH16/VL44 (antibody, human IgG1, V domains shown)
VH: B1 VH with K97R
VL: B4 VL with Q3V, L11M, V15I, F32Y, K45N, D70E, A92N, P100Q, V104L, D105E
B19: VH16/VL40 (antibody, human IgG1, V domains shown)
VH: B1 VH with K97R
VL: B4 VL with Q3V, S7T, F32Y, A43V, K45N, D70E, A92N, P100G, D105E
B20: VH5VL43 (antibody, V domains shown)
VH: B15 VH
VL: B4 VL with Q3V, S7T, F32Y, A92N
B21: VH20/VL39 (antibody, human IgG1, V domains shown)
VH: B1 VH with V11L, R16G, A23V, A49S, S74A, T77S, K97R
VL: B4 VL with Q3V, S10T, F32Y, D70E, E81D, A92N, P100Q, D105E
B22: VH2VL40 (antibody, V domains shown)
VH: B1 VH with Q1E, Q6E, R86K, A87T, A96T, K97T
VL: B4 VL with Q3V, S7T, F32Y, A43V, K45N, D70E, A92N, P100G, D105E
B23: VH20/VL40 (antibody, human IgG1, V domains shown)
VH: B1 VH with V11L, R16G, A23V, A49S, S74A, T77S, K97R
VL: B4 VL with Q3V, S7T, F32Y, A43V, K45N, D70E, A92N, P100G, D105E
B24: VH16/VL39 (antibody, human IgG1, V domains shown)
VH: B1 VH with K97R
VL: B4 VL with Q3V, S10T, F32Y, D70E, E81D, A92N, P100Q, D105E
B25: VH20/VL43 (antibody, human IgG1, V domains shown)
VH: B1 VH with V11L, R16G, A23V, A49S, S74A, T77S, K97R
VL: B4 VL with Q3V, S7T, F32Y, A92N

Each binder was assayed against T1, human CD19 (assay: binding to Raji cells).

| binding result | Binder |
| --- | --- |
| binds | B1 |
| binds | B2 |
| binds | B3 |

Each binder was assayed against T1, human CD19 (assay: flow cytometry on Raji cells).
Protocol: (§1) Binding of the CD19 humanized monoclonal antibodies by flow cytometry to Raji tumor cells (human Burkitt lymphoma, DSMZ ACC319), NALM-6 (human B cell precursor leukemia, DSMZ ACC128) and SU-DHL-6 (human B cell lymphoma, DSMZ ACC572) (all cell lines from DSMZ Braunschweig, Deutschland) was assessed. Cells were incubated with serial dilutions of each humanized monoclonal antibody. An irrelevant human IgG1 was used as a negative control. The cells were washed and detected by a phycoerythrin-labeled (PE) anti-human secondary antibody (eBioscience, CA, USA) and analyzed by flow cytometry. […] From MFI versus antibody concentration curves, Mid-Point Fluorescence (MPF) value for each anti-CD19 humanized antibody was calculated using the software GraphPad Prism 5 (CA, USA).

| binding result | Binder |
| --- | --- |
| no binding | B4 |
| no binding | B5 |

These binders were tested against T1, human CD19 (assay: flow cytometry, Raji cells, MPF vs chimeric FMC63).
Protocol: as §1

| relative MPF (% of chimeric FMC63) | Binder |
| --- | --- |
| 7.42% | B6 |
| 16.9% | B7 |
| 52.9% | B8 |

Target: T1, human CD19
Test: flow cytometry, Raji cells, MPF vs chimeric FMC63
Remark: another data set of the same source
Protocol: as §1

| relative MPF (% of chimeric FMC63) | Binder |
| --- | --- |
| 7.14% | B6 |
| 5.68% | B9 |
| 4.93% | B10 |
| 27.8% | B11 |

Target: T1, human CD19
Test: flow cytometry, Raji cells, MPF vs chimeric FMC63
Remark: another data set of the same source
Protocol: as §1

| relative MPF (% of chimeric FMC63) | Binder |
| --- | --- |
| 7.14% | B6 |
| 25.9% | B12 |
| 17.4% | B13 |
| 34.1% | B14 |

The binders below were run against T1, human CD19 (assay: flow cytometry, NALM-6 cells, MPF vs chimeric FMC63).
Protocol: as §1

| relative MPF (% of chimeric FMC63) | Binder |
| --- | --- |
| 3.29% | B6 |
| 32.9% | B8 |

These binders were tested against T1, human CD19 (assay: competition with 0.2 nM Eu3+-labelled chimeric FMC63 on Raji cells).
Protocol: To that aim, 100 μl volumes of Raji cells in RPMI-1640 medium (Chemie Brunschwig AG, PAA, Basel, Switzerland) supplemented with 10% fetal bovine serum (FBS, Chemie Brunschwig AG, PAA, Basel, Switzerland), 2 mM ultraglutamine 1 (Lonza, Verviers, Belgium) and 1% penicillin/streptomycin (Chemie Brunschwig AG, PAA, Basel, Switzerland), prepared at concentration of 1×10⁶ cells/ml were seeded in a U-bottomed 96-well plate. […] The antibody dilutions were cooled down to 4° C. before 100 μl was taken and added on the Raji cells. […] Cells were incubated with the antibodies for 15 minutes on ice. After reaching equilibrium, the cells were centrifuged at 1300 RPM for 2 minutes and supernatant was discarded. Cell pellets were washed twice with 200 μl of cold binding buffer PBS-2.5% FBS-0.05% NaN₃, and resuspended into 100 μl of Delfia solution. Cell bound Eu³+-FMC63 was measured with time resolved fluorescence as described above. The amount of Eu³+-FMC63 (fmole) per well was determined and plotted versus the total amount of unlabelled antibody.

| Ki | Binder |
| --- | --- |
| 72.8 nM | B6 |
| 49.9 nM | B7 |

The binders below were run against T1, human CD19 (assay: flow cytometry on Raji cells, PE-labelled anti-human secondary antibody, MFI against antibody concentration).
Protocol: These immunoglobulins were assessed for antigen-binding affinity by half-maximal binding assays on B-cell lymphoma cell-lines (FACS) and compared to a chimeric version of FMC63 (this was to standardized level of staining from the anti-human Fc PE-labeled detection-antibody, as described in Example 2).
as §1

| binding result | Binder |
| --- | --- |
| binds | B16 |
| binds | B18 |
| binds | B19 |
| binds | B21 |
| binds | B23 |
| binds | B24 |
| binds | B25 |

| Binder | binding result |
| --- | --- |
| B15 | no binding (tested: about 10 ug/ml (Log(ug/ml) about 1)) |
| B17 | no binding (tested: about 10 ug/ml (Log(ug/ml) about 1)) |
| B20 | no binding (tested: about 10 ug/ml (Log(ug/ml) about 1)) |
| B22 | no binding (tested: about 10 ug/ml (Log(ug/ml) about 1)) |
